Patent US20090214427A1 (LICENTIA, published 2009)
Positions of bridges follow the written chain, without caps; N, C: chain ends. No end group written: not given here.

Columns and labels:
[1] = biological target: T1, recombinant wild-type (wt) human kallikrein 2 (human, UniProt P20151 25-261); experiment: cell-based or functional assay
[2] = biological target: T1, recombinant wild-type (wt) human …; experiment: phage display selection on hK2 captured by MAb 5E4, four rounds
Description: The phage display libraries were constructed in fUSE-5-phage as previously described (Koivunen et al. 1994). We screened libraries with the structures CX₇C, CX₈C, X₉, X₁₀, X₁₁, CX₃CX₃CX₃C, CX₈, CX₉, X₂CX₁₁C, where C stands for cysteine and X for any of the randomly occurring amino acids. Screening was performed according to Koivunen et al. (Koivunen et al. 1994). We screened each peptide library against hK2, which was captured by MAb 5E4 coated into microtiter wells (Wu, Leinonen et al. 2000). MAb 5E4 binds PSA and hK2 in an equimolar manner and reacts with an epitope which is remote from the active site of these enzymes (Stenman et al. 1999), (Leinonen, Wu et al. 2002). Twenty four ng of hK2 was incubated in antibody-coated wells for 30 minutes at 37° C. in Tris/NaCl buffer followed by washing of unbound hK2. An aliquot of phage libraries containing 10¹⁰-10¹¹ transducing units was added into the microtiter wells in 100 μL of 1% BSA in TBS, which was composed of 0.05 mol/L Tris buffer (pH 7.7) containing 0.154 mol/L NaCl and 8 mmol/L NaN3. Incubation took place at 4° C. with gentle shaking for 16-24 hours in the first round and for 1 hour for the following three rounds. The phages were removed and wells were washed with TBS containing 0.5% Tween 20. For elution of the bound phage 0.1 M Glycine-HCl, pH 2.2 containing 0.1% BSA was added. The eluted phage suspension was neutralized with 1 M Tris buffer, pH 9.0, amplified by infection of Escherichia coli K91 cells and purified by polyethylene glycol precipitation (Wu, Leinonen et al. 2000). After four rounds of selection and amplification single stranded DNA from individual phage clones was prepared. The peptide sequences were determined after amplification by PCR (Koivunen et al. 2001). The relevant part of the viral DNA was sequenced with an ABI 310 Genetic analyzer and Dye Terminator Cycle Sequencing Core Kit (PE Applied Biosystems, Foster City, Calif., USA) using the primer 5′-TAATACGACTCACTATAGGGCAAGCTGATAAACCGATACAAT-3′ (SEQ ID NO: 130).

[3] = biological target: T1, recombinant wild-type (wt) human …; experiment: competition phage IFMA on hK2 captured by MAb 5E4; 5 µM synthetic peptide
Description: The phage IFMA was performed essentially as described (Wu, Leinonen et al. 2000). In this assay, 50 ng of hK2 in 200 μL of assay buffer was captured onto wells coated with MAb 5E4. After washing, 2.5 μL of phage (10⁸-10⁹ infectious particles) and 200 μL assay buffer were added to wells. After incubation for 1 h, the wells were washed and filled with 200 μL of assay buffer containing 100 ng Eu-labeled anti-phage polyclonal antibody recognizing the M13 coat protein of the phage. After incubation for 60 min, the wells were washed 4 times, and enhancement solution (Perkin Elmer-Wallac) was added. The fluorescence was quantified with a Victor fluorometer in time resolved mode (Perkin Elmer-Wallac).
The relative binding sites of the peptides on hK2 were mapped by competition experiments with chemically synthesized and phage peptides. The protocol was based on the IFMA method described above except that phages and the synthetic peptides were reacted together with hK2. Briefly, each of the synthetic peptides at 5 μM concentration was added into the wells in which hK2 had been captured by MAb 5E4. After incubation for 30 min each phage was added. After 1 h incubation, the wells were washed and the assay was as described above for IFMA.

[4] = biological target: T1, recombinant wild-type (wt) human …; experiment: cell-based or functional assay; remark: listed apart in the source
[5] = biological target: T1, recombinant wild-type (wt) human …; experiment: Lineweaver-Burke plots; cleavage of 0-400 µM S-2302 by 0.2 µM hK2 at 4 µM peptide

Binder: SRFKVWWAAG [synthetic peptide HK2p01 (SRFKVWWAAG)]
- IC50 for hK2 inhibition (cleavage of S-2302) [1]: 3400 nM

B1: phage carrying peptide HK2p03 as part of pIII protein (peptide)
chain: PARRPFPVTA
notes: also called phage p03; HK2p03 phage clone (X10 library); not shown: pIII coat protein of fUSE-5 filamentous phage
- binding result [2]: binds

B2: phage carrying peptide HK2p02 as part of pIII protein (peptide)
chain: AARRPFPAPS
notes: also called phage p02; HK2p02 phage clone (X10 library); not shown: pIII coat protein of fUSE-5 filamentous phage
- binding result [2]: binds

B3: phage carrying peptide HK2p06 as part of pIII protein (peptide)
chain: CYRMPTCMQRD
modifications: disulfide (positions not given here); also: displayed as fusion to phage pIII protein
notes: also called phage p06; HK2p06 phage clone (X11 library); not shown: pIII coat protein of fUSE-5 filamentous phage
- binding result [2]: binds

B4: synthetic peptide HK2p06 (CYRMPTCMQRD) (peptide)
peptide: CYRMPTCMQRD
modifications: disulfide 1-7 (inferred)
notes: Two Cys residues, said to indicate a cyclic structure
- binding result [3]: binds

Binder: ARFKVWWAAG (S1A variant of HK2p01) [ARFKVWWAAG (SEQ ID NO:56)]
- inhibition [4]: 94%
- IC50 for hK2 inhibition (cleavage of S-2302) [1]: 2200 nM
- Ki [5]: 1410 nM

B5: phage carrying peptide HK2p04 as part of pIII protein (peptide)
chain: CFRQGCWVIT
modifications: disulfide (positions not given here); also: displayed as fusion to phage pIII protein
notes: also called phage p04; HK2p04 phage clone (X10 library); not shown: pIII coat protein of fUSE-5 filamentous phage
- binding result [2]: binds
